# In patent US20130171163:
# Columns and labels:
# [1] = target: insulin-like growth-factor-1 receptor beta subunit (IGF-1Rβ) (UniProt P08069)
# VEGFR2 = VEGFR2 (UniProt P35968)
# Chain of VEGFR2 (P35968 20-1356): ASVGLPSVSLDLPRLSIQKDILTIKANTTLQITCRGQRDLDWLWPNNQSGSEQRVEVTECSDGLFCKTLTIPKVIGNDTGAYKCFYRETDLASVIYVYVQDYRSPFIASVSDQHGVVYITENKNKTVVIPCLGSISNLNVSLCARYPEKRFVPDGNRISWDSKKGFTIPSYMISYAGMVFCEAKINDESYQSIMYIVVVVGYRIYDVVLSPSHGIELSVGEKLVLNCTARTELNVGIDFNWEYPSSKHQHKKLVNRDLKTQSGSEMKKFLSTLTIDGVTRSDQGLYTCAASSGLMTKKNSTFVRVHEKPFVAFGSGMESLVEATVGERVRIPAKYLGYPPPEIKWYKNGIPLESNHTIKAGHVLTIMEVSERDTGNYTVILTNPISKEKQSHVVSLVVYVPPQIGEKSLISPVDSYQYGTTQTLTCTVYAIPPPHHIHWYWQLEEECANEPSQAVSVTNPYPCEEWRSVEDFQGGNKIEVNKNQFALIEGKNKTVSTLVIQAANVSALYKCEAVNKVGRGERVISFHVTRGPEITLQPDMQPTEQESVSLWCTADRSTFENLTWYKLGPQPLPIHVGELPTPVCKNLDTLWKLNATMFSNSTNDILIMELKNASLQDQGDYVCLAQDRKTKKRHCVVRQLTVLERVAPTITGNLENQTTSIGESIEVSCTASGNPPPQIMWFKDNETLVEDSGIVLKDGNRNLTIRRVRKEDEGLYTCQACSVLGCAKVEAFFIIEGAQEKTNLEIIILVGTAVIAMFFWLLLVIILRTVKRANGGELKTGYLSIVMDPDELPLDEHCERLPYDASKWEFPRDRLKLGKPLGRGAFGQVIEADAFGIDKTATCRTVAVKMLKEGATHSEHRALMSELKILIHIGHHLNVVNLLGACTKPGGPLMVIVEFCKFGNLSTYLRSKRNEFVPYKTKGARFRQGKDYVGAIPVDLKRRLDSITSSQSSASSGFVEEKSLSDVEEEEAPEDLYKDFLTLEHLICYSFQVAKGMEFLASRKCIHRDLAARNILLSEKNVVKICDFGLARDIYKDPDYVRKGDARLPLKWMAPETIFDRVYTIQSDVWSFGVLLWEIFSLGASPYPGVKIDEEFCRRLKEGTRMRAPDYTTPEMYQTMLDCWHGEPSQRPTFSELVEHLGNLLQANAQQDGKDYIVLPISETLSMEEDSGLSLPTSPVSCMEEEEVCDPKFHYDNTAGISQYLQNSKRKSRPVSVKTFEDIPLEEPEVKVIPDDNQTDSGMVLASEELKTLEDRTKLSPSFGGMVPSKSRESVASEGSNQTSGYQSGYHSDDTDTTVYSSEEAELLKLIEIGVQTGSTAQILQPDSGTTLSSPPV
# Chain of insulin-like growth-factor-1 receptor beta subunit (IGF-1Rβ) (P08069 whole entry, looked up, tested part not stated): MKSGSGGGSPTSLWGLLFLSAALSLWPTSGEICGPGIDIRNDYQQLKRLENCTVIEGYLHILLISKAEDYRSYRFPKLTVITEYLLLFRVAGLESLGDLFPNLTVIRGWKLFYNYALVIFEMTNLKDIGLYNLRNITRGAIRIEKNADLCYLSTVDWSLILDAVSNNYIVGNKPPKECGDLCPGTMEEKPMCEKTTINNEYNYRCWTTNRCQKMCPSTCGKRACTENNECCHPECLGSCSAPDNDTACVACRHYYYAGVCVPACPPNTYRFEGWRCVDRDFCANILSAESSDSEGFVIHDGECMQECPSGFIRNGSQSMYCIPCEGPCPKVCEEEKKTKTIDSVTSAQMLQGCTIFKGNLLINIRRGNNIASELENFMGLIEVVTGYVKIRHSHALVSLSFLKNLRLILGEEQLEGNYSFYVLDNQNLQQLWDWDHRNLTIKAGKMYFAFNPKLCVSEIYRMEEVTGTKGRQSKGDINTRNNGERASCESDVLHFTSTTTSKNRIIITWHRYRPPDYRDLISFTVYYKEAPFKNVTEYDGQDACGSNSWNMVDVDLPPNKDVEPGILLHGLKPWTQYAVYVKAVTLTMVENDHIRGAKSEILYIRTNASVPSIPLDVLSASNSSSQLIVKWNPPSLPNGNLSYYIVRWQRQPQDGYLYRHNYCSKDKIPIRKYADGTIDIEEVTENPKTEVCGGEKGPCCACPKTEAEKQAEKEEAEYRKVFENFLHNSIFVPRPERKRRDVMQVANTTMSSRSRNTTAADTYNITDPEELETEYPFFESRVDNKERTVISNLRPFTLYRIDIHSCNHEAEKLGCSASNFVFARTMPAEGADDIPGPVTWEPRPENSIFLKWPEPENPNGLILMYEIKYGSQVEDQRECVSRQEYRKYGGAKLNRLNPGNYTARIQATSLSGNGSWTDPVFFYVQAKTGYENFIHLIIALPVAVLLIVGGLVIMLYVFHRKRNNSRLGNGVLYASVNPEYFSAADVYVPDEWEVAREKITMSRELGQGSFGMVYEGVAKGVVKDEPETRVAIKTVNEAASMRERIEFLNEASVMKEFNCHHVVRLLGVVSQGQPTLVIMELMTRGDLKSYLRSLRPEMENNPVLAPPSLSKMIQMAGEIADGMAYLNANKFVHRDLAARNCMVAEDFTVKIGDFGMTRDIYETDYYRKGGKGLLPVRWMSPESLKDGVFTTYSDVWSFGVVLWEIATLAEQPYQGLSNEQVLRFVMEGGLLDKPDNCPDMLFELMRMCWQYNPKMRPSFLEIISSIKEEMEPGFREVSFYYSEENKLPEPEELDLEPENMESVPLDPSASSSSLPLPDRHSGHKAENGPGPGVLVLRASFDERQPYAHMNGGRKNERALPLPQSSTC
substance,measurement,setting,value
leukocyte antigen-related protein tyrosine phosphatase (LAR),"IGF-1-induced tyrosine phosphorylation of IGF-1Rβ in HUVECs overexpressing LAR (AdLAR); IP with anti-IGF-1Rβ, Western blot with anti-phosphotyrosine",[1],"LAR overexpression inhibited IGF-1-induced tyrosine phosphorylation of IGF-1Rβ in a dose-dependent manner, with maximum inhibition at 2.5 MOI"
same,IGF-1Rβ autophosphorylation in IGF-1-treated HUVECs after LAR knockdown with siRNA,[1],"knockdown of endogenous LAR with LAR-specific siRNA (FIGS. 3A-3B) significantly increased IGF-1Rβ activity, without an apparent effect on IGF-1Rβ expression levels, in HUVEC treated with IGF-1"
same,VEGF-induced tyrosine phosphorylation of VEGFR2 in HUVECs overexpressing LAR (AdLAR),VEGFR2,overexpression of LAR had no effect on VEGF-induced tyrosine phosphorylation of VEGFR2 in HUVECs
